Tests used:
[1] = system: HeLa Kyoto; assay: solubility in G1/S (NP-40 vs SDS abundance) (log2 ratio); higher = more soluble; conditions: cell cycle stage: G1/S
[2] = system: HeLa Kyoto; assay: thermal stability score vs G1/S (z-score of summed log2 fold changes over temperatures); higher = more thermally stable than in G1/S
[3] = system: HeLa Kyoto; assay: melting temperature (median over replicates), in situ; higher = more thermally stable
[4] = system: HeLa Kyoto; assay: solubility change mitosis vs G1/S (difference of NP-40 vs SDS log2 ratios) (log2 ratio difference); higher = more soluble in mitosis
[5] = cell cycle stage: early G1 (4.5 h after nocodazole release)
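For melting temperature (median over replicates), in situ in this document: HeLa Kyoto cells synchronized by double thymidine or nocodazole block, proteins quantified by TMT10plex mass spectrometry, three independent biological replicates.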
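For solubility change mitosis vs G1/S (difference of NP-40 vs SDS log2 ratios) in this document: synchronized HeLa Kyoto cells (double thymidine block for G1/S, nocodazole release for mitosis), protein amounts in NP-40 versus SDS lysates quantified by mass spectrometry, three biological replicates.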
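For solubility in G1/S (NP-40 vs SDS abundance) in this document: HeLa Kyoto cells arrested at G1/S by double thymidine block, proteins quantified by TMT10plex mass spectrometry in mild NP-40 versus SDS extracts, three biological replicates.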
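For thermal stability score vs G1/S (z-score of summed log2 fold changes over temperatures) in this document: synchronized HeLa Kyoto cells, proteins quantified by TMT10plex mass spectrometry, three biological replicates, mitosis taken 0.5 h after nocodazole release, G1/S directly after double thymidine block.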

Sequence	solubility in G1/S (log2) [1]	thermal stability score [2, 5]	thermal stability score ([2]; cell cycle stage: mitosis)	melting temperature ([3]; cell cycle stage: G1/S) [°C]	melting temperature ([3]; cell cycle stage: mitosis) [°C]	solubility change mitosis (log2) [4]
MAGPVSLRDLLMGASAWMGSESPGGSPTEGGGSAAGGPEPPWREDEICVVGIFGKTALRLNSEKFSLVNTVCDRQVFPLFRHQDPGDPGPGIRTEAGAVGEAGGAEDPGAAAGGSVRGSGAVAEGNRTEAGSQDYSLLQAYYSQESKVLYLLLTSICDNSQLLRACRALQSGEAGGGLSLPHAEAHEFWKHQEKLQCLSLLYLFSVCHILLLVHPTCSFDITYDRVFRALDGLRQKVLPLLKTAIKDCPVGKDWKLNCRPCPPRLLFLFQLNGALKVEPPRNQDPAHPDKPKKHSPKRRLQHALEDQIYRIFRKSRVLTNQSINCLFTVPANQAFVYIVPGSQEEDPVGMLLDQLRSHCTVKDPESLLVPAPLSGPRRYQVMRQHSRQQLSFHIDSSSSSSSGQLVDFTLREFLWQHVELVLSKKGFDDSVGRNPQPSHFELPTYQKWISAASKLYEVAIDGKEEDLGSPTGELTSKILSSIKVLEGFLDIDTKFSENRCQKALPMAHSAYQSNLPHNYTMTVHKNQLAQALRVYSQHARGPAFHKYAMQLHEDCYKFWSNGHQLCEERSLTDQHCVHKFHSLPKSGEKPEADRNPPVLYHNSRARSTGACNCGRKQAPRDDPFDIKAANYDFYQLLEEKCCGKLDHINFPVFEPSTPDPAPAKNESSPAPPDSDADKLKEKEPQTQGESTSLSLALSLGQSTDSLGTYPADPQAGGDNPEVHGQVEVKTEKRPNFVDRQASTVEYLPGMLHSNCPKGLLPKFSSWSLVKLGPAKSYNFHTGLDQQGFIPGTNYLMPWDIVIRTRAEDEGDLDTNSWPAPNKAIPGKRSAVVMGRGRRRDDIARAFVGFEYEDSRGRRFMCSGPDKVMKVMGSGPKESALKALNSDMPLYILSSSQGRGLKPHYAQLMRLFVVVPDAPLQIILMPQVQPGPPPCPVFYPEKQEITLPPDGLWVLRFPYAYVTERGPCFPPKENVQLMSYKVLRGVLKAVTQ [SMG8]	0.118	0.364	0.79	49.4	48.5	-0.0473
MAGSEQQRPRRRDDGDSDAAAAAAAPLQDAELALAGINMLLNNGFRESDQLFKQYRNHSPLMSFGASFVSFLNAMMTFEEEKMQLACDDLKTTEKLCESEEAGVIETIKNKIKKNVDVRKSAPSMVDRLQRQIIIADCQVYLAVLSFVKQELSAYIKGGWILRKAWKIYNKCYLDINALQELYQKKLTEESLTSDAANDNHIVAEGVSEESLNRLKGAVSFGYGLFHLCISMVPPNLLKIINLLGFPGDRLQGLSSLMYASESKDMKAPLATLALLWYHTVVRPFFALDGSDNKAGLDEAKEILLKKEAAYPNSSLFMFFKGRIQRLECQINSALTSFHTALELAVDQREIQHVCLYEIGWCSMIELNFKDAFDSFERLKNESRWSQCYYAYLTAVCQGATGDVDGAQIVFKEVQKLFKRKNNQIEQFSVKKAERFRKQTPTKALCVLASIEVLYLWKALPNCSFPNLQRMSQACHEVDDSSVVGLKYLLLGAIHKCLGNSEDAVQYFQRAVKDELCRQNNLYVQPYACYELGCLLLDKPETVGRGRALLLQAKEDFSGYDFENRLHVRIHAALASLRELVPQ [TTC39C]	-0.0737	-1.01	-2.55	53.6	52.6	-0.00412
MAGSRLPRQLFLQGVAAVFMFAFASLYTQIPGLYGPEGILPARRTLRPQGKGRWQQLWETPTLLWEAPRLGLDTAQGLELLSLLGALVALGALLLSPLRHPVIYLLLWAAYLSACQVGQVFLYFQWDSLLLETGFLAVLVAPLRPASHRKEAPQGRQAGALPHEDLPFWLVRWLLFRLMFASGVVKLTSRCPAWWGLTALTYHYETQCLPTPAAWFAHHLPVWLHKLSVVATFLIEIAVPPLFFAPIRRLRLAAFYSQVLLQVLIIITGNYNFFNLMTLVLTTALLDDQHLAAEPGHGSRKKTATSWPKALLATLSLLLELAVYGLLAYGTVHYFGLEVDWQQRTIHSRTTFTFHQFSQWLKTLTLPTVWLGVASLVWELLSALWRWTQVRGWLRKLSAVVQLSLVGTATVALFLISLVPYSYVEPGTHGRLWTGAHRLFGAVEHLQLANSYGLFRRMTGLGGRPEVVLEGSYDGHHWTEIEFMYKPGNLSRPPPVVVPHQPRLDWQMWFAALGPHTHSPWFTSLVLRLLQGKEPVIRLVQSQVARYPFHKQPPTYVRAQRYKYWFSQPGEQGQWWRRQWVEEFFPSVSLGDPTLETLLRQFGLQEKSPPRTRSANSTLAQALHWTRSQLSPLEAPALLWGLLMAVGAVRFVQALLAPCSLRSSPLAPVSGEKRRPASQKDSGAASEQATAAPNPCSSSSRTTRRKK [LMF2]	-0.171	-0.462	-1.11	51.9	52.8	-0.0691
MAGSVADSDAVVKLDDGHLNNSLSSPVQADVYFPRLIVPFCGHIKGGMRPGKKVLVMGIVDLNPESFAISLTCGDSEDPPADVAIELKAVFTDRQLLRNSCISGERGEEQSAIPYFPFIPDQPFRVEILCEHPRFRVFVDGHQLFDFYHRIQTLSAIDTIKINGDLQITKLG [LGALSL]	0.36	0.0977	-0.222	53.3	54	-0.16
MAGSYPEGAPAILADKRQQFGSRFLSDPARVFHHNAWDNVEWSEEQAAAAERKVQENSIQRVCQEKQVDYEINAHKYWNDFYKIHENGFFKDRHWLFTEFPELAPSQNQNHLKDWFLENKSEVCECRNNEDGPGLIMEEQHKCSSKSLEHKTQTPPVEENVTQKISDLEICADEFPGSSATYRILEVGCGVGNTVFPILQTNNDPGLFVYCCDFSSTAIELVQTNSEYDPSRCFAFVHDLCDEEKSYPVPKGSLDIIILIFVLSAVVPDKMQKAINRLSRLLKPGGMVLLRDYGRYDMAQLRFKKGQCLSGNFYVRGDGTRVYFFTQEELDTLFTTAGLEKVQNLVDRRLQVNRGKQLTMYRVWIQCKYCKPLLSSTS [METTL2B]	0.19	-0.391	1.29	48.6	48.9	-0.231
MAGYKPVAIQTYPILGEKITQDTLYWNNYKTPVQIKEFGAVSKVDFSPQPPYNYAVTASSRIHIYGRYSQEPIKTFSRFKDTAYCATFRQDGRLLVAGSEDGGVQLFDISGRAPLRQFEGHTKAVHTVDFTADKYHVVSGADDYTVKLWDIPNSKEILTFKEHSDYVRCGCASKLNPDLFITGSYDHTVKMFDARTSESVLSVEHGQPVESVLLFPSGGLLVSAGGRYVKVWDMLKGGQLLVSLKNHHKTVTCLCLSSSGQRLLSGSLDRKVKVYSTTSYKVVHSFDYAASILSLALAHEDETIVVGMTNGILSVKHRKSEAKKESLPRRRRPAYRTFIKGKNYMKQRDDILINRPAKKHLELYDRDLKHFRISKALDRVLDPTCTIKTPEITVSIIKELNRRGVLANALAGRDEKEISHVLNFLIRNLSQPRFAPVLINAAEIIIDIYLPVIGQSPVVDKKFLLLQGLVEKEIDYQRELLETLGMMDMLFATMRRKEGTSVLEHTSDGFPENKKIES [UTP15]	-1.23	-0.279	-3.5	52.6	50.9	0.558
MAHAPARCPSARGSGDGEMGKPRNVALITGITGQDGSYLAEFLLEKGYEVHGIVRRSSSFNTGRIEHLYKNPQAHIEGNMKLHYGDLTDSTCLVKIINEVKPTEIYNLGAQSHVKISFDLAEYTADVDGVGTLRLLDAVKTCGLINSVKFYQASTSELYGKVQEIPQKETTPFYPRSPYGAAKLYAYWIVVNFREAYNLFAVNGILFNHESPRRGANFVTRKISRSVAKIYLGQLECFSLGNLDAKRDWGHAKDYVEAMWLMLQNDEPEDFVIATGEVHSVREFVEKSFLHIGKTIVWEGKNENEVGRCKETGKVHVTVDLKYYRPTEVDFLQGDCTKAKQKLNWKPRVAFDELVREMVHADVELMRTNPNA [GMDS]	-0.249	-0.0264	-1.35	56.4	57.4	-0.00656
MAHCVTLVQLSISCDHLIDKDIGSKSDPLCVLLQDVGGGSWAELGRTERVRNCSSPEFSKTLQLEYRFETVQKLRFGIYDIDNKTPELRDDDFLGGAECSLGQIVSSQVLTLPLMLKPGKPAGRGTITVSAQELKDNRVVTMEVEARNLDKKDFLGKSDPFLEFFRQGDGKWHLVYRSEVIKNNLNPTWKRFSVPVQHFCGGNPSTPIQVQCSDYDSDGSHDLIGTFHTSLAQLQAVPAEFECIHPEKQQKKKSYKNSGTIRVKICRVETEYSFLDYVMGGCQINFTVGVDFTGSNGDPSSPDSLHYLSPTGVNEYLMALWSVGSVVQDYDSDKLFPAFGFGAQVPPDWQVSHEFALNFNPSNPYCAGIQGIVDAYRQALPQVRLYGPTNFAPIINHVARFAAQAAHQGTASQYFMLLLLTDGAVTDVEATREAVVRASNLPMSVIIVGVGGADFEAMEQLDADGGPLHTRSGQAAARDIVQFVPYRRFQNAPREALAQTVLAEVPTQLVSYFRAQGWAPLKPLPPSAKDPAQAPQA [CPNE1]	0.146	0.0462	0.0377	52	51.9	-0.134
MAHQTGIHATEELKEFFAKARAGSVRLIKVVIEDEQLVLGASQEPVGRWDQDYDRAVLPLLDAQQPCYLLYRLDSQNAQGFEWLFLAWSPDNSPVRLKMLYAATRATVKKEFGGGHIKDELFGTVKDDLSFAGYQKHLSSCAAPAPLTSAERELQQIRINEVKTEISVESKHQTLQGLAFPLQPEAQRALQQLKQKMVNYIQMKLDLERETIELVHTEPTDVAQLPSRVPRDAARYHFFLYKHTHEGDPLESVVFIYSMPGYKCSIKERMLYSSCKSRLLDSVEQDFHLEIAKKIEIGDGAELTAEFLYDEVHPKQHAFKQAFAKPKGPGGKRGHKRLIRGPGENGDDS [TWF2]	0.275	-0.101	-1.11	53.6	53	-0.23
MAHTTKVNGSASGKAGDILSGDQDKEQKDPYFVETPYGYQLDLDFLKYVDDIQKGNTIKRLNIQKRRKPSVPCPEPRTTSGQQGIWTSTESLSSSNSDDNKQCPNFLIARSQVTSTPISKPPPPLETSLPFLTIPENRQLPPPSPQLPKHNLHVTKTLMETRRRLEQERATMQMTPGEFRRPRLASFGGMGTTSSLPSFVGSGNHNPAKHQLQNGYQGNGDYGSYAPAAPTTSSMGSSIRHSPLSSGISTPVTNVSPMHLQHIREQMAIALKRLKELEEQVRTIPVLQVKISVLQEEKRQLVSQLKNQRAASQINVCGVRKRSYSAGNASQLEQLSRARRSGGELYIDYEEEEMETVEQSTQRIKEFRQLTADMQALEQKIQDSSCEASSELRENGECRSVAVGAEENMNDIVVYHRGSRSCKDAAVGTLVEMRNCGVSVTEAMLGVMTEADKEIELQQQTIESLKEKIYRLEVQLRETTHDREMTKLKQELQAAGSRKKVDKATMAQPLVFSKVVEAVVQTRDQMVGSHMDLVDTCVGTSVETNSVGISCQPECKNKVVGPELPMNWWIVKERVEMHDRCAGRSVEMCDKSVSVEVSVCETGSNTEESVNDLTLLKTNLNLKEVRSIGCGDCSVDVTVCSPKECASRGVNTEAVSQVEAAVMAVPRTADQDTSTDLEQVHQFTNTETATLIESCTNTCLSTLDKQTSTQTVETRTVAVGEGRVKDINSSTKTRSIGVGTLLSGHSGFDRPSAVKTKESGVGQININDNYLVGLKMRTIACGPPQLTVGLTASRRSVGVGDDPVGESLENPQPQAPLGMMTGLDHYIERIQKLLAEQQTLLAENYSELAEAFGEPHSQMGSLNSQLISTLSSINSVMKSASTEELRNPDFQKTSLGKITGNYLGYTCKCGGLQSGSPLSSQTSQPEQEVGTSEGKPISSLDAFPTQEGTLSPVNLTDDQIAAGLYACTNNESTLKSIMKKKDGNKDSNGAKKNLQFVGINGGYETTSSDDSSSDESSSSESDDECDVIEYPLEEEEEEEDEDTRGMAEGHHAVNIEGLKSARVEDEMQVQECEPEKVEIRERYELSEKMLSACNLLKNTINDPKALTSKDMRFCLNTLQHEWFRVSSQKSAIPAMVGDYIAAFEAISPDVLRYVINLADGNGNTALHYSVSHSNFEIVKLLLDADVCNVDHQNKAGYTPIMLAALAAVEAEKDMRIVEELFGCGDVNAKASQAGQTALMLAVSHGRIDMVKGLLACGADVNIQDDEGSTALMCASEHGHVEIVKLLLAQPGCNGHLEDNDGSTALSIALEAGHKDIAVLLYAHVNFAKAQSPGTPRLGRKTSPGPTHRGSFD [KANK1]	-0.0496	0.397	2.14	49.3	49.4	-0.0616

Reference: the supplement of paper PMC5998384
